{
  "source": "the domain aggregation screens of Martell et al. (2025)",
  "experiment": "soluble fraction after stress (log2 fold change); higher = more stays soluble; pooled small domains, quantitative proteomics",
  "conditions": "stress: pH 4",
  "summary_of_the_method": "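Values are on a log2 scale, where higher means more of the domain stayed soluble after pH 4 stress. They are fold changes in the soluble amount of each domain from pooled custom libraries, measured by high-throughput quantitative proteomics. The fold change is taken to reflect aggregation propensity.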",
  "data": [
    {"sequence": "HMAQLSDMLTYLRKRKGLSQQELANTLKISRSAIGMYETGKREPDLETLEVFADFYNVDMNTLTGKA", "values": [
      {"measurement": "soluble fraction (log2)", "result": 0.192}
    ]},
    {"sequence": "HMKNLNVIDLSALRTLELKESSDWTLIQKRFKLLVKKYHPDMNAGSKQYEEKLKKITLAYTHLKKLF", "values": [
      {"measurement": "soluble fraction (log2)", "result": -0.715}
    ]},
    {"sequence": "HMSEKELTDLIERIKERRLKLEMSYQDLSDATGISKSTLQRYETGYIKKVPINQIEILAKALHTTPSYLMG", "values": [
      {"measurement": "soluble fraction (log2)", "result": 0.0791}
    ]},
    {"sequence": "HMPLQYRLTVQPTPTNARVRLVNSAFTYRPGVALPPGSYIVEVSSSGYGAKRQAVQIADGDVTVPVELEKI", "values": [
      {"measurement": "soluble fraction (log2)", "result": 0.138}
    ]},
    {"sequence": "HMENMSFGTKLYTWLYGKLVGSDEIGNKYYTNINDPSDLNAKRWVIFNGEIEASKIPPHWHAWLHKSIDK", "values": [
      {"measurement": "soluble fraction (log2)", "result": -0.265}
    ]},
    {"sequence": "HMGELYGTDQYKDGDAQDTNIGKLLEVNIDGKWQVATTGTSRFEFAGVMDDNGHKLIMISVLPEAKTV", "values": [
      {"measurement": "soluble fraction (log2)", "result": -0.647}
    ]},
    {"sequence": "HMDSLEIEEPITVKSLSAASGLKISDIIRKLMQEGIMATANQVIDREQAEAVLIDYNVDLVVKR", "values": [
      {"measurement": "soluble fraction (log2)", "result": 0.0392}
    ]},
    {"sequence": "HMGQKMLTIELQEKVNKMPDNLASYDLKLSADGMSLIYKYSLKSERTGITALLQELKNAGLVMRDLKTEQ", "values": [
      {"measurement": "soluble fraction (log2)", "result": -0.302}
    ]},
    {"sequence": "HMDKSFYETFEKIGHGDFDKGLNHVWQHANDGNGTATLLLSKLFLEFGDLDNFEKYLNISAEQSNPVAMKI", "values": [
      {"measurement": "soluble fraction (log2)", "result": -0.191}
    ]},
    {"sequence": "HMAPGIGDSKYFSHIYEMKHIDTIIDNDKGDRLIEHFEIQDTPFIFTKHWTSAFGFSKRQQEIITDYLSYF", "values": [
      {"measurement": "soluble fraction (log2)", "result": -0.0653}
    ]},
    {"sequence": "HMGVAFAPVEKIKHTKTGNELYAVKLAGRVEAEVFGQLRQKAKEYDGYYSKFSRAFLFSTPEDAEAFRAE", "values": [
      {"measurement": "soluble fraction (log2)", "result": 0.276}
    ]},
    {"sequence": "HMDSEEVYQMTKHKMDAAQISVAKRIHINLVLVKLLELHHLGYDLRHYHAQHHAFIKRLNLPEYFRFD", "values": [
      {"measurement": "soluble fraction (log2)", "result": -0.832}
    ]},
    {"sequence": "HMKVGEIIKAKREELKIPLVNFAKELDISQGYLSQIENGIKTNPNLDIILKIIHRLDIDLAMLL", "values": [
      {"measurement": "soluble fraction (log2)", "result": -1.02}
    ]},
    {"sequence": "HMAVSVPDVMGLTYEEAYNKITAEGLLVNRLESYTGLVEKGRVISQLPVGGEPAAKGSTVNVNVSL", "values": [
      {"measurement": "soluble fraction (log2)", "result": -0.139}
    ]},
    {"sequence": "HMFELVKISENIPIRDLAETLKTTPNEIIKELMVFGVLANINQTLNFDLASKVADKLGFEVELL", "values": [
      {"measurement": "soluble fraction (log2)", "result": -0.363}
    ]},
    {"sequence": "HMAETLRLVGATNLNTLARARHPDDLAARNEFRRAIAQANPALFAGKSKVGSVSLPAGTVLALPPEV", "values": [
      {"measurement": "soluble fraction (log2)", "result": "≥ 0.43"}
    ]},
    {"sequence": "HMSGSPREQAESEYRKAIAAVNQGRVSEATESLRAALRLDAFQVAARQLLVKLLLEAKNQDEAIQVLR", "values": [
      {"measurement": "soluble fraction (log2)", "result": -0.489}
    ]},
    {"sequence": "HMNDTNEEAVLSIILKNPQATQGAIAKEVGASLSTVKRIMRNLQKSGKLRREGTNRNGSWVVTGQK", "values": [
      {"measurement": "soluble fraction (log2)", "result": 0.136}
    ]},
    {"sequence": "HMRHYVLKENNGVIAIYKVNQENEAVFKENTQIQVQYLPEVDLINLKKGIYAIGEEKLNSILEDF", "values": [
      {"measurement": "soluble fraction (log2)", "result": -0.892}
    ]},
    {"sequence": "HMFDFMVLGQAIKKARESKEMTREQLAEILDVAPRHIQSIENEGQYPSFPLFIRLVTMFNISVDQY", "values": [
      {"measurement": "soluble fraction (log2)", "result": -1.4}
    ]},
    {"sequence": "HMNGIFEYSDAKKVPSLVEIENAYRRARVNGAEKFAVIINGEYFGYNPQKRGIYKLNDGEYQIL", "values": [
      {"measurement": "soluble fraction (log2)", "result": 0.115}
    ]},
    {"sequence": "HMLLREKLESVLPFISVSALAKTYFKRSPQWFYQRLNGSIVNGKPIRFNDAELKTLAGALTDIGKKISQAA", "values": [
      {"measurement": "soluble fraction (log2)", "result": 0.157}
    ]},
    {"sequence": "HMGQLVYPAGVYDVNKSYITDSNSAPYVLDKTDNNYYVLNTQMTWKGTEQDNKTPSQSYEESGGSVWLLFD", "values": [
      {"measurement": "soluble fraction (log2)", "result": -0.59}
    ]},
    {"sequence": "HMSNPADDVVDLLRQLRLPHMRAAAPELLATAKAQRWDPAEAIRALLTEELAGRQASSINARRK", "values": [
      {"measurement": "soluble fraction (log2)", "result": -0.226}
    ]}
  ]
}
